Assay results taken from paper PMC5358875 (Journal of the American Chemical Society, 2017).
Each block holds one molecule with its values, some of them ahead of it. Bridge positions count the residues as written; N and C are the ends. Square brackets hold non-standard residues; d marks the D form. Ends that are not written are not given here. * marks the point of attachment. 5‑TAMRA = CN(C)c1ccc2c(-c3ccc(C(=O)*)cc3C(=O)[O-])c3ccc(N(C)C)cc3[o+]c2c1; n3 = azido unnatural amino acid, 3 CH2 in side chain; Orn(N3) = [N-]=[N+]=NCCC[C@H](N)C(=O)O; Dap(N3) = [N-]=[N+]=NC[C@H](N)C(=O)O; Aha = [N-]=[N+]=NCC[C@H](N)C(=O)O; m3N = not defined here; m3c = not defined here; m3 = not defined here; m4 = not defined here; m5 = not defined here; Ahx = NCCCCCC(=O)O

Key:
TNKS2 ARC4 = biological target: T1, TNKS2 ARC4 (Homo sapiens, UniProt Q9H2K2); assay: Direct fluorescence polarization, TNKS2 ARC4; assay type: binding; details: TAMRA-labeled peptides, n.d. = not detectable; for Kd: read-out: Kd TNKS2 ARC4 (Direct FP)
T1 construct: GST (cleaved yes); made in house; host or cells: E. coli C41(DE3)
T1 sequence (Q9H2K2 488-649): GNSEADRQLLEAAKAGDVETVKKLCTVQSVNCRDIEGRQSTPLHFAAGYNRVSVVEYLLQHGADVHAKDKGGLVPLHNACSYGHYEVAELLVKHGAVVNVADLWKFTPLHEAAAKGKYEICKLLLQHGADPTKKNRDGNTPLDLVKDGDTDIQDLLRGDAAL
Protocol: Fluorescence polarization (FP) assays were performed in 96-well half area black microplates (Corning) on a CLARIOstar microplate reader (BMG labtech) using excitation filter 540–20 nm, dichroic mirror LP 566 nm, and emission filter 590–20 nm. All peptides were dissolved in water as stock solutions. For direct FP assays, the stock concentrations of the TAMRA-labeled peptides were determined based on the 5-TAMRA absorbance at 556 nm (extinction coefficient ε = 89,000 M^–1 cm^–1) measured on a NanoDrop 2000 (Thermo Scientific) and verified by amino acid analysis (Department of Biochemistry, University of Cambridge). TNKS2 ARC4 (488–649) or TNKS1 ARC2–3 (315–662) was diluted 2-fold serially in the assay buffer (50 mM HEPES pH 7.5, 300 mM NaCl, 2 mM DTT, 0.05% (v/v) Tween 20) for a 12-point titration curve in triplicate. The diluted TAMRA-labeled peptide (20 nM, 50 μL) was mixed with the serially diluted TNKS2 ARC4 or TNKS1 ARC2–3 (40–0 μM, 50 μL) in each well and incubated for 30 min at 25 °C before the measurement. Data were analyzed on GraphPad Prism 5.0, and the dissociation constant, Kd, was determined using the following equation assuming the ratio between the concentration of the bound and that of the total TAMRA-labeled peptide is proportional to the fluorescence polarization [drawing 1] where FP is the fluorescence polarization, B is the minimum FP, T is the maximum FP, L0 is the total concentration of TAMRA-labeled peptide, P0 is the total concentration of protein, and Kd is the dissociation constant.

TNKS2 ARC4 (488–649) = biological target: T2, TNKS2 ARC4 (488–649) (human, UniProt Q9H2K2 488-649); assay: FP
T2 chain: T1 sequence (Q9H2K2 488-649)

[1] = biological target: T3, human tankyrase 2 ankyrin repeat cluster 4 (TNKS2 ARC4, residues 488-649) (human, UniProt Q9H2K2 488-649); assay: fluorescence polarisation; direct: TNKS2 ARC4 or TNKS1 ARC2-3 diluted 2-fold serially (40-0 uM, 50 uL) and mixed with TAMRA-labeled peptide (20 nM, 50 uL); 50 mM HEPES pH 7.5, 300 mM NaCl, 2 mM DTT, 0.05% Tween 20; 30 min, 25 C; details: both partners purified
T3 sequence (looked up): T1 sequence (Q9H2K2 488-649)

[2] = biological target: T4, human tankyrase 1 ankyrin repeat clusters 2-3 (TNKS1 ARC2-3, residues 315-662) (human, UniProt O95271 315-662); assay: as above; details: both partners purified
T4 sequence (looked up): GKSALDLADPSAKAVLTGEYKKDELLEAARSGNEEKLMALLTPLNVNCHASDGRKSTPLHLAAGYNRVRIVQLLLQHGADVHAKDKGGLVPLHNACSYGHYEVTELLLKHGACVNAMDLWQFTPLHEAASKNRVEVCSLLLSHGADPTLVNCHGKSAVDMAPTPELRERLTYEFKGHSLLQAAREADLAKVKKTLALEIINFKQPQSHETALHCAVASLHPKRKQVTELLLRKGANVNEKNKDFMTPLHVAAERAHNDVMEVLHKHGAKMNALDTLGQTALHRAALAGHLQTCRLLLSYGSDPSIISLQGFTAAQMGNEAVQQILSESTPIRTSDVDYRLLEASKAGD

[3] = biological target: T3, human tankyrase 2 ankyrin repeat …; assay: fluorescence polarisation; competition: unlabeled peptide or Axin1 fragment diluted 2-fold serially against TAMRA-labeled pep1 (20 nM) with TNKS2 ARC4 (3 uM); PBS, 0.05% Tween 20; 30 min, 25 C; details: both partners purified
[4] = biological target: T3, human tankyrase 2 ankyrin repeat …; assay: ITC; TNKS2 ARC4 (160-280 uM) or TNKS1 ARC2-3 (60-150 uM) titrated into the cell with unlabeled peptide (5-15 uM) or Axin1 fragment (8-12 uM); PBS, 0.5 mM TCEP; 25 C; one-site model; stoichiometry = TNKS per peptide or Axin1; details: both partners purified
[5] = biological target: T4, human tankyrase 1 ankyrin repeat …; assay: as above; details: both partners purified
TNKS1 ARC2-3 = biological target: T5, TNKS1 ARC2-3 (Homo sapiens, UniProt O95271); assay: Isothermal titration calorimetry, TNKS1 ARC2-3; assay type: binding; details: unlabeled peptides and Axin proteins
T5 construct: His6 (cleaved yes); made in house; host or cells: E. coli C41(DE3)
T5 sequence (O95271 315-662): T4 sequence (looked up)
Protocol: All ITC experiments were performed on a MicroCal iTC200 (GE Healthcare) at 25 °C. TNKS2 ARC4 (488–649), TNKS1 ARC2–3 (315–662), and Axin1 fragments were dialyzed overnight in PBS and 0.5 mM TCEP. Unlabeled peptides were used in the experiments. The peptide was diluted from the stock solution using the same dialysis buffer, and the effect of buffer dilution was accounted for when preparing TNKS samples. TNKS2 ARC4 (160–280 μM) or TNKS1 ARC2–3 (60–150 μM) was titrated into the sample cell containing the peptide (5–15 μM) or Axin1 fragments (8–12 μM) with an initial injection of 0.2 μL over 0.4 s followed by 19 injections of 2 μL over 4 s with a spacing of 60 s, except for TNKS2 ARC4 and Axin1 fragments for which the spacing was 70 s. Control experiments were performed using the same settings as above except that the cell was filled with dialysis buffer. Data were fitted with nonlinear regression using a one-site binding model from Origin 7.0 (MicroCal, Inc.).[90]

Kd (TNKS2 ARC4): 1100 ± 40 nM
Molecule: CN(C)c1ccc2c(c1)Oc1cc(N(C)C)ccc1C21OC(=O)c2cc(C(=O)NCCCCCC(=O)N[C@@H](CCCNC(=N)N)C(=O)N[C@@H](CCC(=O)O)C(=O)N[C@H]3CCn4cc(nn4)CCCc4cn(nn4)CCC[C@@H](C(=O)N[C@@H](CCC(=O)O)C(N)=O)NC(=O)CNC(=O)[C@H](CC(=O)O)NC(=O)CNC3=O)ccc21 [T-cp4n23m3]

Kd (TNKS2 ARC4): 440 ± 10 nM
Molecule: CN(C)c1ccc2c(c1)Oc1cc(N(C)C)ccc1C21OC(=O)c2cc(C(=O)NCCCCCC(=O)N[C@@H](CCCNC(=N)N)C(=O)N[C@@H](CCC(=O)O)C(=O)N[C@H]3CCn4cc(nn4)-c4cc(C(=O)O)cc(c4)-c4cn(nn4)CC[C@@H](C(=O)N[C@@H](CCC(=O)O)C(N)=O)NC(=O)CNC(=O)[C@H](CC(=O)O)NC(=O)CNC3=O)ccc21 [T-cp4n2m3c]

Kd (TNKS2 ARC4): 1200 ± 20 nM
Molecule: CN(C)c1ccc2c(c1)Oc1cc(N(C)C)ccc1C21OC(=O)c2cc(C(=O)NCCCCCC(=O)N[C@@H](CCCNC(=N)N)C(=O)N[C@@H](CCC(=O)O)C(=O)N[C@H]3CCn4cc(nn4)CN(CC(=O)O)Cc4cn(nn4)CC[C@@H](C(=O)N[C@@H](CCC(=O)O)C(N)=O)NC(=O)CNC(=O)[C@H](CC(=O)O)NC(=O)CNC3=O)ccc21 [T-cp4n2m3N]

Kd TNKS2 ARC4 (Direct FP) (TNKS2 ARC4): nondetectable
Molecule: cp4n1m3: non-binding cross-linked peptide, REXGDGXE, UAA side chains n=1, linker m3 (RE[Dap(N3)]GDG[Dap(N3)]E; linker 3-7 via m3 (inferred); reading uncertain)

Kd (TNKS2 ARC4): 2600 ± 100 nM
Molecule: CN(C)c1ccc2c(c1)Oc1cc(N(C)C)ccc1C21OC(=O)c2cc(C(=O)NCCCCCC(=O)N[C@@H](CCCNC(=N)N)C(=O)N[C@@H](CCC(=O)O)C(=O)N[C@H]3CCCn4cc(nn4)CCCc4cn(nn4)CCC[C@@H](C(=O)N[C@@H](CCC(=O)O)C(N)=O)NC(=O)CNC(=O)[C@H](CC(=O)O)NC(=O)CNC3=O)ccc21 [T-cp4n3m3]

Molecule: CN(C)c1ccc2c(c1)Oc1cc(N(C)C)ccc1C21OC(=O)c2cc(C(=O)NCCCCCC(=O)N[C@@H](CCCNC(=N)N)C(=O)N[C@@H](CCC(=O)O)C(=O)N[C@H]3CCn4cc(nn4)-c4cc(C(=O)N[C@@H](CCCNC(=N)N)C(=O)N[C@@H](CCCNC(=N)N)C(=O)N[C@@H](CCCNC(=N)N)C(=O)N[C@@H](CCCNC(=N)N)C(=O)N[C@@H](CCCNC(=N)N)C(=O)N[C@@H](CCCNC(=N)N)C(=O)N[C@@H](CCCNC(=N)N)C(=O)N[C@@H](CCCNC(=N)N)C(=O)N[C@@H](CCCNC(=N)N)C(N)=O)cc(c4)-c4cn(nn4)CC[C@@H](C(=O)N[C@@H](CCC(=O)O)C(N)=O)NC(=O)CNC(=O)[C@H](CC(=O)O)NC(=O)CNC3=O)ccc21 [T-cp4n2m3c-R9]
Kd (TNKS2 ARC4): 740 ± 30 nM

Kd (TNKS2 ARC4): 730 ± 20 nM
Molecule: CC(C)C[C@H](NC(=O)c1cc2cc(c1)-c1cn(nn1)CC[C@H](NC(=O)[C@H](CCC(=O)O)NC(=O)[C@H](CCCNC(=N)N)NC(=O)CCCCCNC(=O)c1ccc3c(c1)C(=O)OC31c3ccc(N(C)C)cc3Oc3cc(N(C)C)ccc31)C(=O)NCC(=O)N[C@@H](CC(=O)O)C(=O)NCC(=O)N[C@H](C(=O)N[C@@H](CCC(=O)O)C(N)=O)CCn1cc-2nn1)C(=O)N[C@@H](CS)C(=O)N[C@@H](CC(C)C)C(=O)N[C@@H](CCCNC(=N)N)C(N)=O [T-cp4n2m3c-LCLR]

Kd (TNKS2 ARC4 (488–649)): 1290 nM
Kd [1]: 1300 ± 40 nM
Molecule: {5‑TAMRA-Ahx}-RE[Aha]GDG[Aha]E (triazole 3-7 via m5; reading uncertain) [T-cp4n2m5]

Kd [1]: 400 ± 10 nM
Kd [2]: 320 ± 3 nM
Molecule: {5‑TAMRA-Ahx}-RE[Aha]GDG[Aha]E-NH2 (triazole 3-7 via m3c; reading uncertain) [T-cp4n2m3c]

Kd [2]: 280 ± 5 nM
Molecule: {5‑TAMRA-Ahx}-RE[Aha]GDG[Aha]E (triazole 3-7 via m3N; reading uncertain) [T-cp4n2m3N]

Kd [3]: 2780 ± 220 nM
Kd [4]: 2620 ± 360 nM
stoichiometry N [4]: 1 ± 0.03
Kd [5]: 1590 ± 90 nM
stoichiometry N [5]: 2.1 ± 0.02
B1: human Axin1 residues 1-80 (domain or fragment, UniProt O15169 1-80, looked up)
chain: MNIQEQGFPLDLGASFTEDAPRPPVPGEEGELVSTDPRPASYSFCSGKGVGIKGETSTATPRRSDLDLGYEPEGSASPTP

Stoichiometry (ITC), TNKS1 ARC2-3 (TNKS1 ARC2-3): two
B2: hAxin1_1-80: fragment of human Axin1, residues 1–80, containing both TNKS-binding motifs (protein)
chain: B1 chain
modifications: left off: GST, end not stated, cleaved

Kd [2]: 180 ± 7 nM
Molecule: {5‑TAMRA-Ahx}-RE[Aha]GDG[Aha]E (triazole 3-7 via m3; reading uncertain) [T-cp4n2m3]

Kd (TNKS2 ARC4 (488–649)): 1910 nM
Kd [1]: 1900 ± 50 nM
Molecule: {5‑TAMRA-Ahx}-RE[n3]GDG[n3]E (bridge 3-7; not fully specified (bridges)) [T-cp4n3m5]

Kd (TNKS2 ARC4 (488–649)): 1110 nM
Kd [1]: 1100 ± 30 nM
Molecule: {5‑TAMRA-Ahx}-RE[Orn(N3)]GDG[Orn(N3)]E (bridge 3-7; not fully specified (bridges)) [T-cp4n3m4]

Kd (TNKS2 ARC4 (488–649)): 810 nM
Kd [2]: 290 ± 8 nM
Molecule: {5‑TAMRA-Ahx}-RE[Aha]GDG[Aha]E (triazole 3-7 via m4; reading uncertain) [T-cp4n2m4]
